Measurements: IntAct's records for PubMed 20594350

B1: Cell division cycle and apoptosis regulator protein 1 (Homo sapiens), Q8IX12 (parent)
chain: MAQFGGQKNPPWATQFTATAVSQPAALGVQQPSLLGASPTIYTQQTALAAAGLTTQTPANYQLTQTAALQQQAAAAAAALQQQYSQPQQALYSVQQQLQQPQQTLLTQPAVALPTSLSLSTPQPTAQITVSYPTPRSSQQQTQPQKQRVFTGVVTKLHDTFGFVDEDVFFQLSAVKGKTPQVGDRVLVEATYNPNMPFKWNAQRIQTLPNQNQSQTQPLLKTPPAVLQPIAPQTTFGVQTQPQPQSLLQAQISAASITPLLQTQPQPLLQQPQQKAGLLQPPVRIVSQPQPARRLDPPSRFSGRNDRGDQVPNRKDDRSRERERERRRSRERSPQRKRSRERSPRRERERSPRRVRRVVPRYTVQFSKFSLDCPSCDMMELRRRYQNLYIPSDFFDAQFTWVDAFPLSRPFQLGNYCNFYVMHREVESLEKNMAILDPPDADHLYSAKVMLMASPSMEDLYHKSCALAEDPQELRDGFQHPARLVKFLVGMKGKDEAMAIGGHWSPSLDGPDPEKDPSVLIKTAIRCCKALTGIDLSVCTQWYRFAEIRYHRPEETHKGRTVPAHVETVVLFFPDVWHCLPTRSEWETLSRGYKQQLVEKLQGERKEADGEQDEEEKDDGEAKEISTPTHWSKLDPKTMKVNDLRKELESRALSSKGLKSQLIARLTKQLKVEEQKEEQKELEKSEKEEDEDDDRKSEDDKEEEERKRQEEIERQRRERRYILPDEPAIIVHPNWAAKSGKFDCSIMSLSVLLDYRLEDNKEHSFEVSLFAELFNEMLQRDFGVRIYKSLLSLPEKEDKKEKDKKSKKDERKDKKEERDDETDEPKPKRRKSGDDKDKKEDRDERKKEDKRKDDSKDDDETEEDNNQDEYDPMEAEEAEDEEDDRDEEEMTKRDDKRDINRYCKERPSKDKEKEKTQMITINRDLLMAFVYFDQSHCGYLLEKDLEEILYTLGLHLSRAQVKKLLNKVVLRESCFYRKLTDTSKDEENHEESESLQEDMLGNRLLLPTPTVKQESKDVEENVGLIVYNGAMVDVGSLLQKLEKSEKVRAEVEQKLQLLEEKTDEDEKTILNLENSNKSLSGELREVKKDLSQLQENLKISENMNLQFENQMNKTIRNLSTVMDEIHTVLKKDNVKNEDKDQKSKENGASV

Variants of: B1
Conditions: with wwtr1_mouse Wwtr1, Q9EPK5
wwtr1_mouse Wwtr1, Q9EPK5, sequence (Q9EPK5 whole entry): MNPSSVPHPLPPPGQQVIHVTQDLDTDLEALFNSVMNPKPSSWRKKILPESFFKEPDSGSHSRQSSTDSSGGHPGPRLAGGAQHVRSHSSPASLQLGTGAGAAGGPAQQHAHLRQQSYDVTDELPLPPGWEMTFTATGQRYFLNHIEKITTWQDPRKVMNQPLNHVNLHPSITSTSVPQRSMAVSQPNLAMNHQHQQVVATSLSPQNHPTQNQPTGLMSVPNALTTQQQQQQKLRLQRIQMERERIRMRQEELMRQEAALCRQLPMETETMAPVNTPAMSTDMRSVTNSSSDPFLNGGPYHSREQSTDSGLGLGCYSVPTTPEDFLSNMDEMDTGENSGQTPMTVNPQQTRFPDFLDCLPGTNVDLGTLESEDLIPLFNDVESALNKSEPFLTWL

For T667A, which “effect of a mutation on the interaction” value is on record?
The value was “decreasing interaction”.

How did the “effect of a mutation on the interaction” value turn out when T667D was run?
The value was “increasing interaction”.
